From US20130012451A1 (RESEARCH FOUNDATION OF STATE UNIVERSITY OF NEW YORK, published 2013)

B1: MMP-9/IVS4 chimera (MMP-9 with the outermost β-strand of blade IV of the PEX domain, NQVDQVGY, replaced by MMP-2 KSVKFGS) (enzyme)
chain: APRQRQSTLVLFPGDLRTNLTDRQLAEEYLYRYGYTRVAEMRGESKSLGPALLLLQKQLSLPETGELDSATLKAMRTPRCGVPDLGRFQTFEGDLKWHHHNITYWIQNYSEDLPRAVIDDAFARAFALWSAVTPLTFTRVYSRDADIVIQFGVAEHGDGYPFDGKDGLLAHAFPPGPGIQGDAHFDDDELWSLGKGVVVPTRFGNADGAACHFPFIFEGRSYSACTTDGRSDGLPWCSTTANYDTDDRFGFCPSERLYTQDGNADGKPCQFPFIFQGQSYSACTTDGRSDGYRWCATTANYDRDKLFGFCPTRADSTVMGGNSAGELCVFPFTFLGKEYSTCTSEGRGDGRLWCATTSNFDSDKKWGFCPDQGYSLFLVAAHEFGHALGLDHSSVPEALMYPMYRFTEGPPLHKDDVNGIRHLYGPRPEPEPRPPTTTTPQPTAPPTVCPTGPPTVHPSERPTAGPTGPPSAGPTGPPTAGPSTATTVPLSPVDDACNVNIFDAIAEIGNQLYLFKDGKYWRFSEGRGSRPQGPFLIADKWPALPRKLDSVFEERLSKKLFFFSGRQVWVYTGASVLGPRRLDKLGLGADVAQVTGALRSGRGKMLLFSGRRLWRFDVKAQMVDPRSASEVDRMFPGVPLDTHDVFQYREKAYFCQDRFYWRVSSRSELKSVKFGSVTYDILQCPED
notes: also called MMP-9/Blade IV; MMP-9/blade IV mutant

Assays:
[1] = target: T1, MMP-9 with a carboxy-terminal Myc tag (MMP-9/Myc) (Homo sapiens (Human), UniProt P14780 20-707); assay: co-immunoprecipitation, co-transfected COS-1 cells
T1 construct: Expressed from cDNA in COS-1 cells and secreted as proMMP-9; also called Myc-tagged MMP-9; proMMP-9/Myc; not shown: C-terminal Myc tag from the pcDNA3.1-myc vector
Excerpt: FIG. 4. Blade IV of the PEX domain of proMMP-9 is required for homodimerization and cell migration. (A) Ribbon diagram of MMP-9 PEX domain (PDB:1ITV). Each outermost β-strand from the four blades was swapped with the corresponding MMP-2 PEX domain sequences (upper panel). Lower panel: Schematic diagram of substitution mutations at the outermost 3-strands of four blade of MMP-9 by corresponding MMP-2 sequences. […] The conditioned medium was also examined by gelatin zymography (lower panel). […] (P-values reflect comparison with MMP-9 transfected cells: *P<0.05). (D) A peptide mimicking MMP-9 IVS4 abrogates MMP-9 dimerization examined by co-immunoprecipitation (upper panel). Total cell lysate (20 μg) was also examined by an immunoblotting assay using anti-HA antibody (lower panel). (E) Dose dependent inhibition of MMP-9-mediated cell migration by IVS4 peptides. No effect was found using scrambled peptides. COS-1 cells transfected with an empty vector or MMP-9 cDNAs were examined by a transwell chamber migration assay for 6 hours in the presence of DMSO control, specific and scramble peptides at different concentration. Each data point was performed in triplicate and the experiments was repeated three times (*P<0.05).
Each blade contains four anti-parallel […]-strands with peptide loops linking one strand to the next as illustrated in FIG. 1B. […]

[2] = target: Matrix Metalloproteinase-9 (MMP-9), wild type (Homo sapiens (Human), UniProt P14780 20-707); assay: cell-based or functional assay

Binder | binding result [1] | IC50 (potency; inhibition of MMP-9-induced cell migration, transwell assay) [2] [µM]
B1 | no binding | 
SRPQGPFL [IS4 peptide (SRPQGPFL)] |  | 12
NQVDQVGY [IVS4 peptide (NQVDQVGY)] |  | 50
